Laboratory results published in PMC9288512 (2022).

Key:
[1] = target: T1, recombinant human proprotein convertase subtilisin/kexin 9 (hPCSK9), his-tagged (human, UniProt Q8NBP7 153-692); test: SPR
[2] = target: T1, recombinant human proprotein convertase …; test: SPR; remark: listed apart in the source

T1 sequence (Q8NBP7 153-692): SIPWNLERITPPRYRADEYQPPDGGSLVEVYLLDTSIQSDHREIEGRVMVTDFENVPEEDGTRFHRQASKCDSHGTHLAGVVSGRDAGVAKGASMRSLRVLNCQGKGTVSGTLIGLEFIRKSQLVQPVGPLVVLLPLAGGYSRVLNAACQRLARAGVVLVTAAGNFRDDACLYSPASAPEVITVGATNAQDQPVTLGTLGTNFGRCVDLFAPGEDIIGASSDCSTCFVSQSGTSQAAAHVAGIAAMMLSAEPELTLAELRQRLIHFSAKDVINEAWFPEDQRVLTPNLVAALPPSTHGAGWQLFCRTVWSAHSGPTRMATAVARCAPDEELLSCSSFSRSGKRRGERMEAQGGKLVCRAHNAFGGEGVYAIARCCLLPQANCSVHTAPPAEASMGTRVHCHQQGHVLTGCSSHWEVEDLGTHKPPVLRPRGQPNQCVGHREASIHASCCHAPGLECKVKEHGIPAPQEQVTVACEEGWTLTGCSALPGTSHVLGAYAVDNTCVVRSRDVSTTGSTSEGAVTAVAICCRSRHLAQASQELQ

| koff [1] [s⁻¹] | Kd [2] [nM] | Binder |
| --- | --- | --- |
| 0.000174 | ~5.01 | VHH-B11 (monovalent camelid nanobody against hPCSK9) (VHH) VHH: QVQLQESGGGSVQAGGSLRLSCTVSGYTYSSNCMGWFRQAPGKEHEGVASIYIGGGSTYYADSVKGRFTISQDNAKNTVYLQMNSLKPEDTAMYYCAVGCQGLVDFGYWDQGTQVTVSS |
| 0.00123 | 0.689 | Llama VHH-human IgG4 hinge linker-IgG4 Fc chimeric HcAb (VHH-B11-Fc) (Fc fusion) QVQLQESGGGSVQAGGSLRLSCTVSGYTYSSNCMGWFRQAPGKEHEGVASIYIGGGSTYYADSVKGRFTISQDNAKNTVYLQMNSLKPEDTAMYYCAVGCQGLVDFGYWDQGTQVTVSS |
